Reference: patent publication US20250223353A1 (BIOTHEUS, published 2025)
Each block holds one binder with its values, some of them ahead of it.

Experiments:
human PVRIG-his protein = molecular target: T1, human PVRIG-his protein (human, UniProt Q6DKI7 41-171); assay: BLI (ForteBio), IgG on AHQ sensor, 100 nM PVRIG-his in solution, monovalent, 1:1 model
T1 construct: also called PVRIG-his antigen; human PVRIG protein; not shown: his tag
T1 sequence: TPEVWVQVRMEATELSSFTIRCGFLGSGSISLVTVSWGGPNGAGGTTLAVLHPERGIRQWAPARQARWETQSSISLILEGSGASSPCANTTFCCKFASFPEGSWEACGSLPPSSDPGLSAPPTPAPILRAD
Protocol: (§1) Biofilm layer optical interference technology (ForteBio) was used to determine the binding and dissociation rate constant (KD) values of the antibodies and their variants or Fab fragments obtained in Example 1 to human, cynomolgus monkey and mouse PVRIG. ForteBio affinity measurement was performed according to existing methods (Este, P et al., High throughput solution-based measurement of antibody-antigen affinity and epitope binning. Mabs, 2013.5 (2): p270-8).
The antibody-loaded sensor was incubated in 100 nM PVRIG-his antigen to the plateau phase, and then the sensor was transferred to an analysis buffer and incubated for at least 2 minutes for measuring dissociation rate. The kinetic analysis was performed using a 1:1 binding model.

[1] = molecular target: T2, cynomolgus monkey PVRIG-Fc protein (cynomolgus monkey, UniProt Q6DKI7 41-171 (human entry), limits assumed); assay: BLI (ForteBio), IgG on AHQ sensor, 100 nM PVRIG-Fc in solution, bivalent, 1:1 model
T2 construct: also called cynomolgus PVRIG-Fc protein; not shown: Fc part
T2 chain: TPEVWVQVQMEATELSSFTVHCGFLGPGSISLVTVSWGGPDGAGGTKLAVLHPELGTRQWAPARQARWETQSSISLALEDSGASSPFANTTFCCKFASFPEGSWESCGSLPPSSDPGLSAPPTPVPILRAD
Protocol: as §1
(§2) The antibody-loaded sensor was continued to be loaded in a high concentration of irrelevant intact antibody for 10 min, saturating the Fc-binding site on the AHQ sensor. The saturated sensor was incubated in 100 nM PVRIG-Fc antigens to the plateau phase, and then the sensor was transferred to an analysis buffer and incubated for at least 2 minutes for measuring dissociation rate. The kinetic analysis was performed using a 1:1 binding model.

mouse PVRIG-Fc protein = molecular target: T3, mouse PVRIG-Fc protein (mouse); assay: as above
T3 construct: not shown: Fc part
T3 chain: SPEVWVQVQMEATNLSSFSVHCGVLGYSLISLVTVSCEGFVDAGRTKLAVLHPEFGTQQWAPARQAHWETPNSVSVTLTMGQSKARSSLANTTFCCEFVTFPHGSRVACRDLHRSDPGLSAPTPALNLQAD
Protocol: as §1, §2

[2] = molecular target: T4, human PVRIG protein with mouse IgG2a Fc tag (human, UniProt Q6DKI7 41-171, limits assumed); assay: flow cytometry competition: human PVRIG-mouse IgG2a Fc (1 ug/mL) binding to CHO-huCD112 cells
T4 construct: not shown: mouse IgG2a Fc tag
T4 sequence (looked up): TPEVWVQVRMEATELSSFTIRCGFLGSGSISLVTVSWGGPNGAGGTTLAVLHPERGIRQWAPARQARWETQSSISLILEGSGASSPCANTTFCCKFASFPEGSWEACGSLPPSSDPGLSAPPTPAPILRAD
Protocol: Specifically, CHO cells overexpressing human CD112 (CHO-huCD112 cells) were generated by transfection of the pCHO1.0 vector (purchased from Invitrogen) with cDNA encoding human CD112 cloned into the multiple cloning site (MCS), followed by pressure screening. The CHO-huCD112 cells were expanded and adjusted to a cell density of 2×10^6 cells/mL, added to a 96-well flow plate at 100 μL/well, and centrifuged for later use. The purified monoclonal antibody was gradiently diluted with PBS and the diluted sample was added to a 96-well flow plate at 60 μL/well. […] The above incubated samples were added at 100 μL/well to the 96-well flow plate containing CHO-huCD112 cells, incubated at 4° C. for 30 min and washed twice with PBS. APC-conjugated goat anti-mouse IgG antibody diluted 100-fold with PBS was added at 100 μL/well, incubated at 4° C. for 30 minutes and washed twice with PBS. Cells were resuspended with PBS at 100 μL/well, and detected on a CytoFlex flow cytometer, and the corresponding MFI was calculated.

[3] = molecular target: T5, cynomolgus PVRIG overexpressed on CHO cells (cynomolgus, UniProt A0A2K5WVV8 1-322); assay: flow cytometry on CHO-cynoPVRIG cells
T5 construct: whole, on cells; also called CHO-cynoPVRIG cells
T5 sequence: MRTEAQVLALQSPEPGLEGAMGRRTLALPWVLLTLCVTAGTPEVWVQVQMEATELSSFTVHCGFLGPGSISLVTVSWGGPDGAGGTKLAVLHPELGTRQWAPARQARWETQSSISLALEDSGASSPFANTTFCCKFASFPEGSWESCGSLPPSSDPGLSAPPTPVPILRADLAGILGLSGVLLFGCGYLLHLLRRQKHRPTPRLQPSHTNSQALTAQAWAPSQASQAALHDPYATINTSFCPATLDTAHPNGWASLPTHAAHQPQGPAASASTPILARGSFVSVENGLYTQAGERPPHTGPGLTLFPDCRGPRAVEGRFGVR
Protocol: (§3) The overexpressing cells were expanded and adjusted to an appropriate cell density, and added to a 96-well flow cytometry plate. After centrifugation, the cells were added with a gradiently diluted sample to be tested, and incubated at 4° C. for 30 minutes. The cells were washed twice with PBS, and added with a fluorescent secondary antibody correspondingly diluted to an appropriate concentration, then incubated at 4° C. for 30 minutes, and washed twice with PBS. Cells were resuspended with PBS, and detected on a CytoFlex flow cytometer, and the corresponding MFI was calculated. Graphpad software was used for graphical analysis to obtain EC50 values.

[4] = molecular target: T6, human PVRIG on the cell surface (human, UniProt Q6DKI7 41-326); assay: flow cytometry on CHO-huPVRIG cells
T6 construct: whole, on cells; also called CHO-huPVRIG cells; human PVRIG protein overexpressed on the surface of CHO cells
T6 sequence (looked up): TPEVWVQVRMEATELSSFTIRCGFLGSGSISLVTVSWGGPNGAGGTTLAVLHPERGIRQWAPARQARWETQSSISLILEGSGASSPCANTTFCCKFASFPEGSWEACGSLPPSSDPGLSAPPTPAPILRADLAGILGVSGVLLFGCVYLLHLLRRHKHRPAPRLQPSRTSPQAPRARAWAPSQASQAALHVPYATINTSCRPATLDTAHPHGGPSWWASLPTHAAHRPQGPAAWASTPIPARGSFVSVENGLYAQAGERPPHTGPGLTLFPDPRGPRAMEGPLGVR
Protocol: as §3

[5] = molecular target: Biotin-labeled mouse PVRIG huFc protein (mouse); assay: competition ELISA: biotin mouse PVRIG huFc (2 ug/mL) binding to coated mouse CD112-his
Protocol: Specifically, mouse CD112-his protein diluted with 1× coating buffer to a final concentration of 1 μg/mL was added to the ELISA plate at 100 μL/well, covered with the film, and coated overnight at 4° C. The coating solution in the ELISA plate was discarded, and the ELISA plate was washed three times with 1×PBST and was blocked with 5% BSA/PBS at 200 μL/well for 2 hours at room temperature. During the blocking period, the samples to be tested were gradient diluted with 1% BSA/PBS to a final volume of 60 μL/well. […] The above co-incubated samples were discarded, the ELISA plate was washed three times with 1×PBST, and SA-HRP diluted with 1% BSA/PBS was added at 100 μL/well and incubated for 1 hour at room temperature.

human PVRIG-Fc protein = molecular target: T7, human PVRIG-Fc protein (human, UniProt Q6DKI7 41-171); assay: BLI (ForteBio), PVRIG-Fc on AHQ sensor, 100 nM Fab in solution, monovalent, 1:1 model
T7 construct: also called PVRIG-Fc antigen (human); not shown: Fc part
T7 sequence: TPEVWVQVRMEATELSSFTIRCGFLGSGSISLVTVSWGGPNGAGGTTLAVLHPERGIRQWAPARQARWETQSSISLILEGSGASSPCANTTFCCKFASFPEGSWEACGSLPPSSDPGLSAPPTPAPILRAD
Protocol: as §1
(§4) The antigen-loaded sensor was incubated in 100 nM Fab solution to the plateau phase, and then the sensor was transferred to an analysis buffer and incubated for at least 2 minutes for measuring dissociation rate. The kinetic analysis was performed using a 1:1 binding model.

[6] = molecular target: T2, cynomolgus monkey PVRIG-Fc protein; assay: as above
Protocol: as §1, §4

B1: ADI-56249 (antibody, V domains shown)
VH: QVQLVQSGAEVKKPGSSVKVSCKASGGTFSTFAISWVRQAPGQGLEWMGDIIPIFGSNYAQKFQGRVTITADESTSTAYMELSSLRSEDTAVYYCARGPLEGKVSPFDIWGQGTMVTVSS
VL: DIVMTQSPLSLPVTPGEPASISCRSSQSLLHSTGYNYLDWYLQKPGQSPQLLIYVGSTRASGVPDRFSGSGSGTDFTLKISRVEAEDVGVYYCMQERQFPITFGGGTKVEIK
notes: Full-length IgG secreted by yeast and purified on Protein A
Kd (human PVRIG-his protein): 0.872 nM
Kd [1]: 0.244 nM
Kd (mouse PVRIG-Fc protein): 2.62 nM

B4: ADI-56204 Fab fragment (Fab, V domains shown)
VH: QVQLVQSGAEVKKPGASVKVSCKASGYTFTHYGIYWVRQAPGQGLEWMGHIYAYSGDTDYAQKLQGRVTMTTDTSTSTAYMELRSLRSDDTAVYYCARGSPTYEHFNWFDPWGQGTLVTVSS
VL: DIQMTQSPSSLSASVGDRVTITCQASDDISDYLNWYQQKPGKAPKLLIYDASSLHTGVPSRFSGSGSGTDFTFTISSLQPEDIATYYCQQYGNLPITFGGGTKVEIK
notes: Fab made by papain digestion of the yeast full-length IgG, purified with Kappa Select
Kd (human PVRIG-Fc protein): 0.383 nM
Kd [6]: 14.8 nM

More lines, now with the values ahead:

IC50 [2]: 2.07 nM
EC50 [3]: 0.396 nM
EC50 [4]: 1.3 nM
IC50 [5]: 3.22 nM
B2: ADI-56249-G1LALA (antibody, human IgG1, kappa, L234A L235A, V domains shown)
VH: QVQLVQSGAEVKKPGSSVKVSCKASGGTFSTFAISWVRQAPGQGLEWMGDIIPIFGSNYAQKFQGRVTITADESTSTAYMELSSLRSEDTAVYYCARGPLEGKVSPFDIWGQGTMVTVSS
VL: DIVMTQSPLSLPVTPGEPASISCRSSQSLLHSTGYNYLDWYLQKPGQSPQLLIYVGSTRASGVPDRFSGSGSGTDFTLKISRVEAEDVGVYYCMQERQFPITFGGGTKVEIKR

Kd (human PVRIG-Fc protein): 0.263 nM
Kd [6]: 21.2 nM
B3: ADI-56249 Fab fragment (Fab, V domains shown)
VH: QVQLVQSGAEVKKPGSSVKVSCKASGGTFSTFAISWVRQAPGQGLEWMGDIIPIFGSNYAQKFQGRVTITADESTSTAYMELSSLRSEDTAVYYCARGPLEGKVSPFDIWGQGTMVTVSS
VL: DIVMTQSPLSLPVTPGEPASISCRSSQSLLHSTGYNYLDWYLQKPGQSPQLLIYVGSTRASGVPDRFSGSGSGTDFTLKISRVEAEDVGVYYCMQERQFPITFGGGTKVEIK
notes: as for B4
